The results in this text go back to patent publication US20190224274, “MIF INHIBITORS AND METHODS OF USE THEREOF” (The Johns Hopkins University, published 2019).

Substitutions are numbered along the chain they refer to.

The target in data set [1] is T1, MIF (Homo sapiens, UniProt P14174 P14174:1-115).
T1 sequence: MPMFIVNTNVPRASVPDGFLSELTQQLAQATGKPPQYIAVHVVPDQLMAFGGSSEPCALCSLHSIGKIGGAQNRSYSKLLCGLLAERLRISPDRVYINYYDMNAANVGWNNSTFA
The data set is described as follows: EMSA; 10 mM Mg2+. Conditions: tags: GST tag removed (pGex-6P-1); chain copies: 3 (inferred, trimer by FPLC); label: 5' biotin. As for the experimental part: In parallel with the ssDNA studies, MIF was tested to see if it binds to dsDNA using PS³⁰, poly A, PS³⁰ sequence-related substrates (5′bPS³⁰, 5′bSL, 5′bLF, 5′bRF, 5′bPA³⁰, and 5′bPASE) as well as non-related sequences (PCS and 5′bL3) (FIG. 3B and FIG. 19).
(§1) EMSA assay was performed using LightShift Chemiluminescent EMSA kit (Thermo Scientific) following the manufactures instruction. Briefly, purified MIF protein (2 μM) was incubated with biotin-labeled DNA substrates (10 nM) in the binding buffer containing 10 mM MgCl₂ for […] on ice. Then samples were separated on 6% retardation polyacrylamide followed by electrophoretic transfer to nylon membrane.

Data set [2] deals with T1, MIF. Briefly: EMSA; 10 mM Mg2+. To be noted: tags: GST tag removed (pGex-6P-1); chain copies: 3 (inferred, trimer by FPLC); label: 5' biotin; stem loop, 1 unpaired 3' base.
The target of data set [3] is T1, MIF. Briefly: EMSA; 10 mM Mg2+; no obvious effect vs PS30. To be noted: tags: GST tag removed (pGex-6P-1); chain copies: 3 (inferred, trimer by FPLC); label: 5' biotin; stem loop, no 3' unpaired bases.
Protocol: 5′ biotin labeled ssPS³⁰ and its sequence-related substrates with different structures by removing unpaired bases at the 5′ end, 3′ end, both 5′ and 3′ ends or eliminating the stem loop were used in the EMSA (FIG. 3B, and FIG. 19).
EMSA assay was performed using LightShift Chemiluminescent EMSA kit (Thermo Scientific) following the manufactures instruction. Briefly, purified MIF protein (2 μM) was incubated with biotin-labeled DNA substrates (10 nM) in the binding buffer containing 10 mM MgCl₂ for 30 mM on ice. Then samples were separated on 6% retardation polyacrylamide followed by electrophoretic transfer to nylon membrane. Then, Biotin-labeled DNA is further detected by chemiluminescence using Chemiluminescent Nucleic Acid Detection Module (Thermo Scientific).
For data set [4], the target named is T2, MIF D17A (Homo sapiens, UniProt P14174 P14174:1-115, D17A).
T2 sequence: T1 sequence with D17A
Briefly: EMSA; 10 mM Mg2+; text prints P17A. To be noted: tags: GST tag removed; chain copies: 3; label: 5' biotin; stem loop with unpaired 5' and 3' bases. How it is done: (§2) Both single stranded and double stranded forms of two classes of MIF DNA binding motifs were examined for MIF binding and cleavage specificity. The ssPS³⁰ sequence was synthesized with a 5′ biotin label and subjected to an electrophoretic mobility shift assay (EMSA) (FIG. 18C).
as §1

Data set [5] has as its target T3, MIF D17Q (Homo sapiens, UniProt P14174 P14174:1-115, D17Q).
T3 sequence: T1 sequence with D17Q
The data set is described as follows: EMSA; 10 mM Mg2+; text prints P17Q. To be noted: tags: GST tag removed; chain copies: 3; label: 5' biotin; stem loop with unpaired 5' and 3' bases. As for the experimental part: as §2, §1

For data set [6], the target named is T4, MIF E22Q (Homo sapiens, UniProt P14174 P14174:1-115, E22Q).
T4 sequence: T1 sequence with E22Q
The data set is described as follows: EMSA; 10 mM Mg2+. Conditions: tags: GST tag removed; chain copies: 3 (inferred); label: 5' biotin; stem loop with unpaired 5' and 3' bases. How it is done: as §2, §1

The target in data set [7] is T5, MIF E22A (Homo sapiens, UniProt P14174 P14174:1-115, E22A).
T5 sequence: T1 sequence with E22A
The data set is described as follows: EMSA; 10 mM Mg2+. To be noted: tags: GST tag removed; chain copies: 3 (inferred); label: 5' biotin; stem loop with unpaired 5' and 3' bases. As for the experimental part: as §2, §1

Data set [8] has as its target T6, MIF P16A (Homo sapiens, UniProt P14174 P14174:1-115, P16A).
T6 sequence: T1 sequence with P16A
Briefly: EMSA; 10 mM Mg2+. To be noted: tags: GST tag removed; chain copies: 3; label: 5' biotin; stem loop with unpaired 5' and 3' bases. How it is done: as §2, §1

B1: dsLF (dsDNA)
DNA 1: AAAAAAACTCAGCCTCCCAAGTAGCTGGGA
DNA 2: TCCCAGCTACTTGGGAGGCTGAGTTTTTTT
For B1, the binding result in data set [1] is on record as “no binding”.

B2: dsRF (dsDNA)
DNA 1: TCCCAAGTAGCTGGGATTACAGGAAAAAAA
DNA 2: TTTTTTTCCTGTAATCCCAGCTACTTGGGA
On to B2, for which the binding result in data set [1] is on record as “no binding”.

B3: dsSL (dsDNA)
DNA 1: CCTGTAATCCCAAGTAGCTGGGATTACAGG
DNA 2: CCTGTAATCCCAGCTACTTGGGATTACAGG
Take B3: the binding result in data set [1] is given as “no binding”.

On to AAAAAAAAAACAAGTAGCTGGGATTACAGG (ssDNA) [3F1], for which the binding result in data set [2] is reported as “binds”.

B4: dsPA30 (dsDNA)
DNA 1: AAAAAAAAAAAAAAAAAAAAAAAAAAAAAA
DNA 2: TTTTTTTTTTTTTTTTTTTTTTTTTTTTTT
Consider B4, for which the binding result in data set [1] is recorded as “no binding”.

In the case of AAAAAAACTCAGCCTCCCAAGTAGCTGGGA (ssDNA) [LF], the binding result in data set [3] is listed as “binds”.

B5: dsL3 (dsDNA)
DNA 1: ACCTAAATGCTAGAGCTCGCTGATCAGCCT
DNA 2: AGGCTGATCAGCGAGCTCTAGCATTTAGGT
For B5, the binding result in data set [1] is given as “no binding”.

B6: dsPS30 (dsDNA)
DNA 1: CTCAGCCTCCCAAGTAGCTGGGATTACAGG
DNA 2: CCTGTAATCCCAGCTACTTGGGAGGCTGAG
Regarding B6, the binding result in data set [1] is “no binding”.

With CTCAGCCTCCCAAGTAGCTGGGATTACAGG (ssDNA) [PS30], the binding result in data set [4], in data set [5], in data set [6], in data set [7] and in data set [8] was “binds” throughout.
